Measurements reported in article PMC2175515, “Hfq stimulates the activity of the CCA-adding enzyme”.

Molecular target: Hfq (Escherichia coli, UniProt P0A6X3 1-102)
Experiment: competition; competitor 20-600 fmol vs 20 fmol labelled tRNA (N1); Same conditions as the CCA-addition assay (30 °C, 1 and 10 min); buffer, salt and pH not in the material; native 6% polyacrylamide gel
Conditions: protein: recombinant; chain copies: 6

Chain of Hfq (P0A6X3 whole entry): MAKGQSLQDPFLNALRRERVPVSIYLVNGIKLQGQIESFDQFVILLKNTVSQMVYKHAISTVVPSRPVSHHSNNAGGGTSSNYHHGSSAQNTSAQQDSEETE

B1: pCR 2.1 TOPO run-off transcript (ssRNA)
RNA: GGGCGAAUUGGGCCCUCUAGAUGCAUGCUCGAGCGGCCGCCAGUGUGAUGGAU
**Q.** Does B1 bind?
**A.** no binding
